Measured values as given in patent publication US8552166, “High-affinity nucleic acid aptamers against sclerostin protein” (The University of Hong Kong).

Target: Sclerostin (SOST) (Mus musculus, UniProt Q99P68 Q99P68:1-211)
Assay: ITC; PBS, 25 C; n=0.91, dH -10.9 kcal/mol, TdS -2.3 kcal/mol
Settings: tags: GST fusion (pGEX-4T1, E. coli BL21(DE3)); parallel G4 (CD, Tm 75 C)
Procedure: Sclerostin-aptamer interaction was investigated by studying the thermodynamics of the interaction of aptamer Scl 2 with sclerostin by Isothermal Titration Calorimetry. In the upper panel of FIG. 7 the calorimetric titrations of the aptamers into sclerostin solution conducted at 25° C. An exothermic heat pulse was observed after each injection of aptamers into the protein solution. The binding stoichiometry was fitted using simple single site binding model. […] The dissociation constant for the interaction of aptamer Scl 2 with sclerostin is 500 nM that is a competitive value in DNA-protein interactions. In addition, the values of ΔH and ΔS reveal that the binding processes are enthalpically driven with a favorable enthalpy of reaction (ΔH) at 25° C. of −10.9 kcal/mol offset by an unfavorable entropy of reaction (TΔS=−2.3 kcal/mol).
For Isothermal Titration Calorimetry, equilibrium binding studies between anti-sclerostin aptamers and scleorstin are performed on MicroCal VP-ITC. In a typical ITC experiment, 15 μM GST-sclerostin or 20 μM GST was loaded into the cell with 200 μM aptamer or random sequence in the titrating syringe. GST-sclerostin and GST were dialyzed into the PBS buffer with a MWCO of 10,000. The titration experiments were performed at 25° C. with an initial 0.2 μl injection, followed by thirty 1.2 μl A injections. The spacing between injections was 200 s. […]

Sequence of Sclerostin (SOST) (Q99P68 whole entry, one chain of several): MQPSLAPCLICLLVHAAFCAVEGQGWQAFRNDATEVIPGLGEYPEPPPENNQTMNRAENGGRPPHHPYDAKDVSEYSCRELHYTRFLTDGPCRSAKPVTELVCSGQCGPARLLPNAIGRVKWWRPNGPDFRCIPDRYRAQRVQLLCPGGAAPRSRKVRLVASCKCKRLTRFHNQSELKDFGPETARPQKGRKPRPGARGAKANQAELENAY

**Q.** With TTGCGCGTTAATTGGGGGGGTGGGTGGGTT (ssDNA) [Scl 2] as the binder, how does the Kd read?
**A.** 500 nM
